B1: Gic1(104-314) (domain or fragment, yeast (S. cerevisiae), UniProt P38785 104-314, looked up)
chain: MFKKKDLLSRRHGSAKTAKQSSISTPFDFHHISHANGKREDNPLESHEEKHDVESLVKFTSLAPQPRPDSNVSSKYSNVVMNDSSRIVSSSTIATTMDSHHDGNETNNTPNGNKQLDSPTDLEMTLEDLRNYTFPSVLGDSVSEKTNPSSPSVSSFSGKFKPRELSALHTPELGNCFNVDQSLNSPGNRISVDDVLKFYYQCSETSTPRNT
notes: Gic1, yeast, residues 104-314 (N-terminal 103 amino acids deleted); gic1(310-942) in nucleotides; contains the CRIB domain and the C-terminus; Called simply Gic1 throughout the text; The methods say GST was cleaved with thrombin; Dimer by gel filtration; source: E. coli BL21 (DE3) Rosetta, purified (Ni-NTA, glutathione sepharose, Superdex S200)
B2: yeast septin complex (Cdc3, Cdc10, Cdc11, Cdc12) (complex, yeast (S. cerevisiae))
chain 1: MSLKEEQVSIKQDPEQEERQHDQFNDVQIKQESQDHDGVDSQYTNGTQNDDSERFEAAESDVKVEPGLGMGITSSQSEKGQVLPDQPEIKFIRRQINGYVGFANLPKQWHRRSIKNGFSFNLLCVGPDGIGKTTLMKTLFNNDDIEANLVKDYEEELANDQEEEEGQGEGHENQSQEQRHKVKIKSYESVIEENGVKLNLNVIDTEGFGDFLNNDQKSWDPIIKEIDSRFDQYLDAENKINRHSINDKRIHACLYFIEPTGHYLKPLDLKFMQSVYEKCNLIPVIAKSDILTDEEILSFKKTIMNQLIQSNIELFKPPIYSNDDAENSHLSERLFSSLPYAVIGSNDIVENYSGNQVRGRSYPWGVIEVDNDNHSDFNLLKNLLIKQFMEELKERTSKILYENYRSSKLAKLGIKQDNSVFKEFDPISKQQEEKTLHEAKLAKLEIEMKTVFQQKVSEKEKKLQKSETELFARHKEMKEKLTKQLKALEDKKKQLELSINSASPNVNHSPVPTKKKGFLR
chain 2: MDPLSSVQPASYVGFDTITNQIEHRLLKKGFQFNIMVVGQSGLGKSTLINTLFASHLIDSATGDDISALPVTKTTEMKISTHTLVEDRVRLNINVIDTPGFGDFIDNSKAWEPIVKYIKEQHSQYLRKELTAQRERFITDTRVHAILYFLQPNGKELSRLDVEALKRLTEIANVIPVIGKSDTLTLDERTEFRELIQNEFEKYNFKIYPYDSEELTDEELELNRSVRSIIPFAVVGSENEIEINGETFRGRKTRWSAINVEDINQCDFVYLREFLIRTHLQDLIETTSYIHYEGFRARQLIALKENANSRSSAHMSSNAIQR
chain 3: MSGIIDASSALRKRKHLKRGITFTVMIVGQSGSGRSTFINTLCGQQVVDTSTTILLPTDTSTEIDLQLREETVELEDDEGVKIQLNIIDTPGFGDSLDNSPSFEIISDYIRHQYDEILLEESRVRRNPRFKDGRVHCCLYLINPTGHGLKEIDVEFIRQLGSLVNIIPVISKSDSLTRDELKLNKKLIMEDIDRWNLPIYNFPFDEDEISDEDYETNMYLRTLLPFAIIGSNEVYEMGGDVGTIRGRKYPWGILDVEDSSISDFVILRNALLISHLHDLKNYTHEILYERYRTEALSGESVAAESIRPNLTKLNGSSSSSTTTRRNTNPFKQSNNINNDVLNPASDMHGQSTGENNETYMTREEQIRLEEERLKAFEERVQQELLLKRQELLQREKELREIEARLEKEAKIKQEE
chain 4: MSAATATAAPVPPPVGISNLPNQRYKIVNEEGGTFTVMLCGESGLGKTTFINTLFQTVLKRADGQQHRQEPIRKTVEIDITRALLEEKHFELRVNVIDTPGFGDNVNNNKAWQPLVDFIDDQHDSYMRQEQQPYRTKKFDLRVHAVLYFIRPTGHGLKPIDIETMKRLSTRANLIPVIAKADTLTAQELQQFKSRIRQVIEAQEIRIFTPPLDADSKEDAKSGSNPDSAAVEHARQLIEAMPFAIVGSEKKFDNGQGTQVVARKYPWGLVEIENDSHCDFRKLRALLLRTYLLDLISTTQEMHYETYRRLRLEGHENTGEGNEDFTLPAIAPARKLSHNPRYKEEENALKKYFTDQVKAEEQRFRQWEQNIVNERIRLNGDLEEIQGKVKKLEEQVKSLQVKKSHLK
notes: Cdc3, yeast septin; Cdc10, yeast septin; Cdc11, yeast septin; Cdc12, yeast septin; Octamer at high salt (500 mM NaCl), filaments at low salt (100 mM NaCl); also called septin octamers; septin filaments; source: expressed and purified as described earlier (Farkasovsky et al., 2005); copies: 2 + 2 + 2 + 2

Legend:
[1] = molecular target: the molecule itself; assay: SEC; gel filtration of purified Gic1(104-314) alone against protein standards; calculated 23.38 kDa, elutes at 49 kDa; monomer to dimer
[2] = molecular target: T1, Cdc10(30-322) (subunit of the septin-Cdc10(30-322) complex) (yeast (S. cerevisiae), UniProt P25342 30-322); assay: negative-stain electron microscopy with single particle analysis; 0.3 µM septin hetero-oligomers, alone or with 1.5 µM Gic1, dialysed overnight at 4°C from high-salt buffer against low-salt buffer (100 mM NaCl, 20 mM Tris-HCl pH 7.5, 1 mM DTT); antibody labelling against Cdc11; adsorbed to a lipid monolayer; conditions: both partners purified
T1 construct: Never tested alone: it stood inside the complex m5
T1 sequence (looked up): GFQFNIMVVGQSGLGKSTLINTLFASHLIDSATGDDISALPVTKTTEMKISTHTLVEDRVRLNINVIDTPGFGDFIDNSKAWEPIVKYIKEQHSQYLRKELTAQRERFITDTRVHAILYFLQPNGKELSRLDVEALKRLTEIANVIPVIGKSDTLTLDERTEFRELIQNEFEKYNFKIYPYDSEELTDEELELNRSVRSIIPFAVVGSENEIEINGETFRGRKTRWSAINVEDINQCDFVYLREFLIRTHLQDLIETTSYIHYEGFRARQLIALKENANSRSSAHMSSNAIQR

[3] = molecular target: T2, Cdc10 (subunit of the purified yeast septin complex) (yeast (S. cerevisiae), UniProt P25342 1-322); assay: as above; conditions: both partners purified
T2 construct: Cdc10, yeast septin; Never tested alone: it stood inside the complex m2; the subunit that is touched was assigned from antibody labelling, complexes lacking subunits and the known order of the subunits; source: subunit of the septin complex expressed and purified as described earlier (Farkasovsky et al., 2005)
T2 sequence (looked up): B2 chain 2

[4] = molecular target: B2; assay: as above; conditions: both partners purified
[5] = molecular target: T3, septin-Cdc11Δ complex (Cdc3, Cdc10, Cdc12) (yeast (S. cerevisiae), UniProt P32457 1-520; P25342 1-322; P32468 1-407); assay: as above; conditions: both partners purified
T3 construct: Cdc3, yeast septin; Cdc10, yeast septin; Cdc12, yeast septin; Septin complex devoid of the Cdc11 subunit; copies: + +
T3 sequence (looked up) 1: B2 chain 1
T3 sequence (looked up) 2: B2 chain 2
T3 sequence (looked up) 3: B2 chain 4

[6] = molecular target: T4, septin-Cdc10(30-322) complex (Cdc3, Cdc10(30-322), Cdc11, Cdc12) (yeast (S. cerevisiae), UniProt P32457 1-520; P25342 30-322; P32458 1-415; P32468 1-407); assay: as above; conditions: both partners purified
T4 construct: Cdc3, yeast septin; Cdc11, yeast septin; Cdc12, yeast septin; Seen by EM as tetramers or inside-out octamers; no filaments at low salt; also called polymerization-impaired septin complexes; non-polymerizing septin; copies: + + +

[7] = molecular target: the molecule itself; assay: negative-stain electron microscopy with single particle analysis; 0.1 µM septin octamers, with or without 0.5 µM Gic1; Cdc42-GppNHp or Cdc42-GDP at the concentration of Gic1 or 10 times higher (0.25, 1.5, 5 µM), 2 to 60 min; antibody labelling against Cdc3

| Binder | stoichiometry N [1] | binding result [2] | binding result [3] | binding result [4] | binding result [5] | binding result [6] | binding result [7] |
| --- | --- | --- | --- | --- | --- | --- | --- |
| B1 | ~2 | binds | binds | binds | binds | binds | – |
| B2 | – | – | – | – | – | – | binds |

— publication PMC3840788, “The role of Cdc42 and Gic1 in the regulation of septin filament formation and dissociation” (eLife, 2013)
